From US20180094059A1

Biological target: TRAIL receptors (TRAILR) on tumor cells
Assay: flow cytometry, Colo205 cells

Chain of scTRAIL3-… (P50591 other isoform, or with tags, fused parts or gaps): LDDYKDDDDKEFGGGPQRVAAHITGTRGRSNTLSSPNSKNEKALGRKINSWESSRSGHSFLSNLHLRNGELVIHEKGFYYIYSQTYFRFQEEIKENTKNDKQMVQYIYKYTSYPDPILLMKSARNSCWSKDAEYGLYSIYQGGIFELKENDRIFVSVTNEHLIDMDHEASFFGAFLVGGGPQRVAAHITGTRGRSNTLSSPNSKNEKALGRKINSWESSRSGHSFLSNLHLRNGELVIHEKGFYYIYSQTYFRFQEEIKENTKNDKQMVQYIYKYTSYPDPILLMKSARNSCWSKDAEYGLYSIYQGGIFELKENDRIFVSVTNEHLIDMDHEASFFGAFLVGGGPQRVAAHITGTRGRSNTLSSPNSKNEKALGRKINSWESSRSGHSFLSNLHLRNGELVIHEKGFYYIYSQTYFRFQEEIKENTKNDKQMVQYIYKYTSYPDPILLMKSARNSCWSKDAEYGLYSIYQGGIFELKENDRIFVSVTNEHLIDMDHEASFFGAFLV

scTRAIL3-… (from UniProt P50591 118-281) (ligand)
EC50: 5.67 nM
